In one assay the target is T1, FcγRIa (human, UniProt P12314 16-292).
T1 construct: extracellular domain; also called FcgRI; CD64
As to the kind of experiment: SPR; vs GpH7-B3/GpL16-k0=100. (In SPR one partner is held on a chip, and binding of the other changes the refractive index at the surface.)

The target of assay [1] is T2, FcγRIIa R (extracellular domain with a His tag at the C terminus) (human, UniProt P12318 34-217).
T2 construct: extracellular domain; expressed in FreeStyle293 cells; also called FcgRIIa R; FcγRIIa type R; not shown: His tag at the C terminus
T2 sequence (looked up): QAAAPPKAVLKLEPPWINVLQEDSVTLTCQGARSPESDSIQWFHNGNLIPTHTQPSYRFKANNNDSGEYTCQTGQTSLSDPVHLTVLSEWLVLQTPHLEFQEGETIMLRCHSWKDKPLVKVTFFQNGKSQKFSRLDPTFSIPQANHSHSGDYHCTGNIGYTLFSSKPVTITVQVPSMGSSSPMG
As to the kind of experiment: SPR Biacore, relative binding.

T1 sequence (P12314 16-292): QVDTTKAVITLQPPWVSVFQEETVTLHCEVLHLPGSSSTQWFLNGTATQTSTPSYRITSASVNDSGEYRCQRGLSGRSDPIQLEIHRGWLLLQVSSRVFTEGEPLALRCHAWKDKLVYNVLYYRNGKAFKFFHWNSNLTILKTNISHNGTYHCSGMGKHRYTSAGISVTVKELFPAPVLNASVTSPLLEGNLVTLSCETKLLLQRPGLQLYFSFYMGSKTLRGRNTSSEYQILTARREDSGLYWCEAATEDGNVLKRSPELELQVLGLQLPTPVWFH

B1: GpH7-B3 variant E269_04F/GpL16-k0 (antibody, human IgG1, kappa)
heavy: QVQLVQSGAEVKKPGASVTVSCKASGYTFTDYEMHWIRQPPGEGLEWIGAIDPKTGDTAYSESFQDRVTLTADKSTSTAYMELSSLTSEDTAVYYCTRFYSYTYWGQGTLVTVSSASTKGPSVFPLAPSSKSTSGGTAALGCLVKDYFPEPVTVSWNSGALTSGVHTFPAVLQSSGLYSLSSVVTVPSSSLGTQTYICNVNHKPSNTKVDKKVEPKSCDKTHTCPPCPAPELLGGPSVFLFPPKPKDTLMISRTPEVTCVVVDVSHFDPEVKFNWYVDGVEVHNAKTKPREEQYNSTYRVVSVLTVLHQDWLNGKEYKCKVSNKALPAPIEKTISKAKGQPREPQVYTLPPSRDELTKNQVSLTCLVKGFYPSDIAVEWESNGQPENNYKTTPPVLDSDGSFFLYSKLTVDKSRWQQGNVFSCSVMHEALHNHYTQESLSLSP
light: DIVMTQSPLSLPVTPGEPASISCQASESLVHSNRNTYLHWYLQKPGQSPQLLIYKVSNRFSGVPDRFSGSGSGTDFTLKISRVEAEDVGVYYCSQNTHVPPTFGQGTKVEIERTVAAPSVFIFPPSDEQLKSGTASVVCLLNNFYPREAKVQWKVDNALQSGNSQESVTEQDSKDSTYSLSSTLTLSKADYEKHKVYACEVTHQGLSSPVTKSFNRGEC
notes: homodimerized; also called Ho Ab E269_04F
For the molecule B1, the Ho/Con_1a with FcγRIa is 102 % of control.

B2: GpH7-A5/GpH7-B3 variant S337_18N/GpL16-k0 (antibody, human IgG1, kappa)
heavy 1: not shown
heavy 2: not shown
light: DIVMTQSPLSLPVTPGEPASISCQASESLVHSNRNTYLHWYLQKPGQSPQLLIYKVSNRFSGVPDRFSGSGSGTDFTLKISRVEAEDVGVYYCSQNTHVPPTFGQGTKVEIERTVAAPSVFIFPPSDEQLKSGTASVVCLLNNFYPREAKVQWKVDNALQSGNSQESVTEQDSKDSTYSLSSTLTLSKADYEKHKVYACEVTHQGLSSPVTKSFNRGEC
notes: heterodimerized; mutation in one H chain; also called He Ab
For the molecule B2, the He/Con_2aR in assay [1] is 107 % of GpH7-A5/GpH7-B3/GpL16-k0 (=100).

B3: GpH7-A5/GpH7-B3 variant S337_16H/GpL16-k0 (antibody, human IgG1, kappa)
heavy 1: not shown
heavy 2: not shown
light: DIVMTQSPLSLPVTPGEPASISCQASESLVHSNRNTYLHWYLQKPGQSPQLLIYKVSNRFSGVPDRFSGSGSGTDFTLKISRVEAEDVGVYYCSQNTHVPPTFGQGTKVEIERTVAAPSVFIFPPSDEQLKSGTASVVCLLNNFYPREAKVQWKVDNALQSGNSQESVTEQDSKDSTYSLSSTLTLSKADYEKHKVYACEVTHQGLSSPVTKSFNRGEC
notes: as for B2
Regarding B3, the He/Con_2aR in assay [1] was 109 % of GpH7-A5/GpH7-B3/GpL16-k0 (=100).

B4: GpH7-A5/GpH7-B3 variant S337_06M/GpL16-k0 (antibody, human IgG1, kappa)
heavy 1: not shown
heavy 2: not shown
light: DIVMTQSPLSLPVTPGEPASISCQASESLVHSNRNTYLHWYLQKPGQSPQLLIYKVSNRFSGVPDRFSGSGSGTDFTLKISRVEAEDVGVYYCSQNTHVPPTFGQGTKVEIERTVAAPSVFIFPPSDEQLKSGTASVVCLLNNFYPREAKVQWKVDNALQSGNSQESVTEQDSKDSTYSLSSTLTLSKADYEKHKVYACEVTHQGLSSPVTKSFNRGEC
notes: as for B2
B4: the He/Con_2aR in assay [1] was 105 % of GpH7-A5/GpH7-B3/GpL16-k0 (=100).

B5: GpH7-A5/GpH7-B3 variant S337_03V/GpL16-k0 (antibody, human IgG1, kappa)
heavy 1: not shown
heavy 2: not shown
light: DIVMTQSPLSLPVTPGEPASISCQASESLVHSNRNTYLHWYLQKPGQSPQLLIYKVSNRFSGVPDRFSGSGSGTDFTLKISRVEAEDVGVYYCSQNTHVPPTFGQGTKVEIERTVAAPSVFIFPPSDEQLKSGTASVVCLLNNFYPREAKVQWKVDNALQSGNSQESVTEQDSKDSTYSLSSTLTLSKADYEKHKVYACEVTHQGLSSPVTKSFNRGEC
notes: as for B2
On to B5, for which, in assay [1], the He/Con_2aR was 106 % of GpH7-A5/GpH7-B3/GpL16-k0 (=100).

B6: GpH7-A5/GpH7-B3 variant S337_19Q/GpL16-k0 (antibody, human IgG1, kappa)
heavy 1: not shown
heavy 2: not shown
light: DIVMTQSPLSLPVTPGEPASISCQASESLVHSNRNTYLHWYLQKPGQSPQLLIYKVSNRFSGVPDRFSGSGSGTDFTLKISRVEAEDVGVYYCSQNTHVPPTFGQGTKVEIERTVAAPSVFIFPPSDEQLKSGTASVVCLLNNFYPREAKVQWKVDNALQSGNSQESVTEQDSKDSTYSLSSTLTLSKADYEKHKVYACEVTHQGLSSPVTKSFNRGEC
notes: as for B2
In the case of B6, in assay [1], the He/Con_2aR is 106 % of GpH7-A5/GpH7-B3/GpL16-k0 (=100).

B7: GpH7-A5/GpH7-B3 variant S337_10E/GpL16-k0 (antibody, human IgG1, kappa)
heavy 1: not shown
heavy 2: not shown
light: DIVMTQSPLSLPVTPGEPASISCQASESLVHSNRNTYLHWYLQKPGQSPQLLIYKVSNRFSGVPDRFSGSGSGTDFTLKISRVEAEDVGVYYCSQNTHVPPTFGQGTKVEIERTVAAPSVFIFPPSDEQLKSGTASVVCLLNNFYPREAKVQWKVDNALQSGNSQESVTEQDSKDSTYSLSSTLTLSKADYEKHKVYACEVTHQGLSSPVTKSFNRGEC
notes: as for B2
As to B7, the He/Con_2aR in assay [1] was 112 % of GpH7-A5/GpH7-B3/GpL16-k0 (=100).

B8: GpH7-A5/GpH7-B3 variant T335_13S/GpL16-k0 (antibody, human IgG1, kappa)
heavy 1: not shown
heavy 2: not shown
light: DIVMTQSPLSLPVTPGEPASISCQASESLVHSNRNTYLHWYLQKPGQSPQLLIYKVSNRFSGVPDRFSGSGSGTDFTLKISRVEAEDVGVYYCSQNTHVPPTFGQGTKVEIERTVAAPSVFIFPPSDEQLKSGTASVVCLLNNFYPREAKVQWKVDNALQSGNSQESVTEQDSKDSTYSLSSTLTLSKADYEKHKVYACEVTHQGLSSPVTKSFNRGEC
notes: as for B2
As to B8, the He/Con_2aR in assay [1] is 110 % of GpH7-A5/GpH7-B3/GpL16-k0 (=100).

B9: GpH7-A5/GpH7-B3 variant S337_20W/GpL16-k0 (antibody, human IgG1, kappa)
heavy 1: not shown
heavy 2: not shown
light: DIVMTQSPLSLPVTPGEPASISCQASESLVHSNRNTYLHWYLQKPGQSPQLLIYKVSNRFSGVPDRFSGSGSGTDFTLKISRVEAEDVGVYYCSQNTHVPPTFGQGTKVEIERTVAAPSVFIFPPSDEQLKSGTASVVCLLNNFYPREAKVQWKVDNALQSGNSQESVTEQDSKDSTYSLSSTLTLSKADYEKHKVYACEVTHQGLSSPVTKSFNRGEC
notes: as for B2
In the case of B9, the He/Con_2aR in assay [1] was 110 % of GpH7-A5/GpH7-B3/GpL16-k0 (=100).

B10: GpH7-A5/GpH7-B3 variant T335_02A/GpL16-k0 (antibody, human IgG1, kappa)
heavy 1: not shown
heavy 2: not shown
light: DIVMTQSPLSLPVTPGEPASISCQASESLVHSNRNTYLHWYLQKPGQSPQLLIYKVSNRFSGVPDRFSGSGSGTDFTLKISRVEAEDVGVYYCSQNTHVPPTFGQGTKVEIERTVAAPSVFIFPPSDEQLKSGTASVVCLLNNFYPREAKVQWKVDNALQSGNSQESVTEQDSKDSTYSLSSTLTLSKADYEKHKVYACEVTHQGLSSPVTKSFNRGEC
notes: as for B2
In the case of B10, the He/Con_2aR in assay [1] was 102 % of GpH7-A5/GpH7-B3/GpL16-k0 (=100).

The values above are taken from patent US20180155451A1 (published 2018).
